Experimental data from PMC7498355, “A quantitative binding model for the Apl protein, the dual purpose recombination-directionality factor and lysis-lysogeny regulator of bacteriophage 186”.

Assays:
Conditions in all cases: protein: recombinant; label: 32P end label on one strand; blunt
Apl [1] = biological target: T1, Apl (bacteriophage 186, UniProt P21681 1-87); experiment: EMSA; up to 6400 nM Apl; EMSA: 50 mM Tris-HCl pH 7.5, 0.1 mM EDTA, 10% glycerol, 150 mM NaCl, on ice >=30 min, gel at 4 C; bending in TEG 50; footprint: same Tris/EDTA/glycerol with 75
T1 sequence: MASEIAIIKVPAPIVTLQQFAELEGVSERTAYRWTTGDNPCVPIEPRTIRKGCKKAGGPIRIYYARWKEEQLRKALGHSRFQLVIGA

Apl [2] = biological target: T1, Apl; experiment: EMSA; apparent Kd (50% DNA unbound); EMSA: 50 mM Tris-HCl pH 7.5, 0.1 mM EDTA, 10% glycerol, 150 mM NaCl, on ice >=30 min, gel at 4 C; bending in TEG 50; footprint: same Tris/EDTA/glycerol with 75
Apl [3] = biological target: T1, Apl; experiment: EMSA; two retarded bands; EMSA: 50 mM Tris-HCl pH 7.5, 0.1 mM EDTA, 10% glycerol, 150 mM NaCl, on ice >=30 min, gel at 4 C; bending in TEG 50; footprint: same Tris/EDTA/glycerol with 75
Apl [4] = biological target: T1, Apl; experiment: EMSA; pattern similar to central five pR-pL operators; EMSA: 50 mM Tris-HCl pH 7.5, 0.1 mM EDTA, 10% glycerol, 150 mM NaCl, on ice >=30 min, gel at 4 C; bending in TEG 50; footprint: same Tris/EDTA/glycerol with 75
Apl [5] = biological target: T1, Apl; experiment: EMSA; multiple shifted species; EMSA: 50 mM Tris-HCl pH 7.5, 0.1 mM EDTA, 10% glycerol, 150 mM NaCl, on ice >=30 min, gel at 4 C; bending in TEG 50; footprint: same Tris/EDTA/glycerol with 75

B1: Apl 10101 (dsDNA)
DNA 1: AACCCACGCAATTGACTTAGGGTGTTGGCAAACAGCTTAGGATCAATTGCAAACTT
DNA 2: AAGTTTGCAATTGATCCTAAGCTGTTTGCCAACACCCTAAGTCAATTGCGTGGGTT
binding result (Apl [1]): no binding

B2: Apl 101 (dsDNA)
DNA 1: TGATGGCAAGTGTCTTAGGACAGAGTCAAATCA
DNA 2: TGATTTGACTCTGTCCTAAGACACTTGCCATCA
binding result (Apl [1]): no binding

B3: Apl 3 (111) (dsDNA)
DNA 1: TTGATGGCAAGTGTTGGCAAACAGAGTCAAATCA
DNA 2: TGATTTGACTCTGTTTGCCAACACTTGCCATCAA
Kd (Apl [2]): ~800 nM

B4: Apl 5 (dsDNA)
DNA 1: AACCCACGCAATTGATGGCAAGTGTTGGCAAACAGAGTCAAATCAATTGCAAACTT
DNA 2: AAGTTTGCAATTGATTTGACTCTGTTTGCCAACACTTGCCATCAATTGCGTGGGTT
binding result (Apl [3]): binds

B5: Apl 4 (dsDNA)
DNA 1: TTGATGGCAAGTGTTGGCAAACAGAGTCAAATCAATTGCAAACTT
DNA 2: AAGTTTGCAATTGATTTGACTCTGTTTGCCAACACTTGCCATCAA
binding result (Apl [3]): binds

B6: Apl 1101 (dsDNA)
DNA 1: AACCCACGCAATTGATGGCAAGTGTCTTAGGACAGAGTCAAATCA
DNA 2: TGATTTGACTCTGTCCTAAGACACTTGCCATCAATTGCGTGGGTT
binding result (Apl [1]): no binding

B7: Apl 7 (dsDNA)
DNA 1: TATTTTGGCTAAACCCACGCAATTGATGGCAAGTGTTGGCAAACAGAGTCAAATCAATTGCAAACTTTGGCTAATAGG
DNA 2: CCTATTAGCCAAAGTTTGCAATTGATTTGACTCTGTTTGCCAACACTTGCCATCAATTGCGTGGGTTTAGCCAAAATA
Kd (Apl [2]): ~275 nM

B8: attP 5 (dsDNA)
DNA 1: ATCATTGACATAGATTGCCATTGTTTGCCAATAATTACCTATTATTCGCCATTTC
DNA 2: GAAATGGCGAATAATAGGTAATTATTGGCAAACAATGGCAATCTATGTCAATGAT
binding result (Apl [4]): binds

B9: Apl 2 (two pR-pL operators) (dsDNA)
DNA 1: TTGATGGCAAGTGTTGGCAAACAG
DNA 2: CTGTTTGCCAACACTTGCCATCAA
binding result (Apl [1]): no binding

B10: Apl 6 (dsDNA)
DNA 1: TATTTTGGCTAAACCCACGCAATTGATGGCAAGTGTTGGCAAACAGAGTCAAATCAATTGCAAACTT
DNA 2: AAGTTTGCAATTGATTTGACTCTGTTTGCCAACACTTGCCATCAATTGCGTGGGTTTAGCCAAAATA
binding result (Apl [5]): binds
